Reference: patent US20200339690A1 (JOUNCE THERAPEUTICS, published 2020)

Columns and labels:
[1] = molecular target: T1, human LILRB5 (human, UniProt O75023 24-590); assay: flow cytometry, LILRB5 CHOs
T1 construct: Over-expressed on CHO-s cells; also called hLILRB5

[2] = molecular target: T2, human LILRB1 (human, UniProt Q8NHL6 24-650); assay: flow cytometry, LILRB1 CHOs
T2 construct: Over-expressed on CHO-s cells; also called hLILRB1

[3] = molecular target: T3, human LILRB2 expressed on cells (human, UniProt Q8N423 22-597); assay: flow cytometry, LILRB2 CHOs
T3 construct: CHO-s cells over-expressing full-length human LILRB2, or primary human macrophages and dendritic cells; also called hLILRB2-CHO-s; hLILRB2+ CHO-s
T3 sequence (Q8N423 other isoform, or with tags, fused parts or gaps limits assumed): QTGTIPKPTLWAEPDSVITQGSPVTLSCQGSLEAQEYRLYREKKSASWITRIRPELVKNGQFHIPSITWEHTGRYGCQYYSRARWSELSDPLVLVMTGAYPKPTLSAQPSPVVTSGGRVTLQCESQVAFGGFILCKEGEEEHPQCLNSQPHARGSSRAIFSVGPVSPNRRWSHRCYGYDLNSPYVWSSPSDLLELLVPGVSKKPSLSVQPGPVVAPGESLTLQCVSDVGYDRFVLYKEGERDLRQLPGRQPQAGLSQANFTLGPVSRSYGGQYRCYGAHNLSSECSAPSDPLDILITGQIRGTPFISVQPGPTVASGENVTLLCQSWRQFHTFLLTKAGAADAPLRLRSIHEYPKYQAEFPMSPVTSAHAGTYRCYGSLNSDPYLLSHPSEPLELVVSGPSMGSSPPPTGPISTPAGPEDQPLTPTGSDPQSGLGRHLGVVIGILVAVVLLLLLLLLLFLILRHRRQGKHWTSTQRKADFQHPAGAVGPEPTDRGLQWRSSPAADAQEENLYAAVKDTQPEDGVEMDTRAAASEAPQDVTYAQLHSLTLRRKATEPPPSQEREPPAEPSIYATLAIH

[4] = molecular target: T3, human LILRB2 expressed on cells; assay: blocking of HLA-G tetramer on LILRB2 CHOs, flow cytometry, mAb 10 ug/mL
Procedure: (§1) In the secondary screen, 1×10⁵ CHO-s cells over-expressing human LILRB2 were plated in 96-well round-bottom tissue culture-treated plate and washed twice with 1×DPBS (Gibco) and incubated with 10 μg/mL primary antibody (anti-LILRB2 mAbs or control) prepared in 50 μL FACS buffer (1×DPBS containing 2% HI-FBS (Sigma)+0.05% Sodium Azide). After incubation with mAbs for 30 minutes at 4° C., cells were washed twice in FACS buffer and then resuspended in 50 μL of FACS buffer containing 5 μg/mL APC-conjugated HLA-A2 or HLA-G tetramer (Fred Hutch). Cells were incubated protected from light for 30-60 minutes at 4° C. After incubation with tetramer, cells were washed in FACS buffer and re-suspended in fix buffer (1.5% paraformaldehyde diluted in 1×DPBS). Samples were analyzed using the Celesta flow cytometer analyzer (BD Biosciences). Data represent percent tetramer blocked by mAbs relative to tetramer alone, calculated according to the following equation: […]

[5] = molecular target: T4, human LILRA2 (human, UniProt Q8N149 24-483); assay: flow cytometry, LILRA2 CHOs
T4 construct: Over-expressed on CHO-s cells; also called hLILRA2
T4 sequence (Q8N149 24-483 S135L limits assumed): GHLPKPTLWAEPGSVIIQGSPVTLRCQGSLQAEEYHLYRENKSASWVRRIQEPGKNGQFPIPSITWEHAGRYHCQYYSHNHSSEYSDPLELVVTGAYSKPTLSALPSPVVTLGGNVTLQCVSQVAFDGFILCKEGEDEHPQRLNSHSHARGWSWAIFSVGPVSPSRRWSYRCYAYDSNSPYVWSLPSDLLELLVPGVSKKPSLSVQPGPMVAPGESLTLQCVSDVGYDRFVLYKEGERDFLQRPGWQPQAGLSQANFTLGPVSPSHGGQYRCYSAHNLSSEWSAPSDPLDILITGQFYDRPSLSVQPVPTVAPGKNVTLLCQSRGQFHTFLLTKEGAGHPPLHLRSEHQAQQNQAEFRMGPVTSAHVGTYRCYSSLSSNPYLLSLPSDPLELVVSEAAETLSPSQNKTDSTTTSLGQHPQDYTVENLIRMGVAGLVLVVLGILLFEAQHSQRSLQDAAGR

[6] = molecular target: T3, human LILRB2 expressed on cells; assay: blocking of HLA-A2 tetramer on LILRB2 CHOs, flow cytometry, mAb 10 ug/mL
Procedure: as §1

[7] = molecular target: T5, human LILRA1 (human, UniProt O75019 17-489); assay: flow cytometry, LILRA1 CHOs
T5 construct: Over-expressed on CHO-s cells; also called hLILRA1
T5 sequence (O75019 17-489 limits assumed): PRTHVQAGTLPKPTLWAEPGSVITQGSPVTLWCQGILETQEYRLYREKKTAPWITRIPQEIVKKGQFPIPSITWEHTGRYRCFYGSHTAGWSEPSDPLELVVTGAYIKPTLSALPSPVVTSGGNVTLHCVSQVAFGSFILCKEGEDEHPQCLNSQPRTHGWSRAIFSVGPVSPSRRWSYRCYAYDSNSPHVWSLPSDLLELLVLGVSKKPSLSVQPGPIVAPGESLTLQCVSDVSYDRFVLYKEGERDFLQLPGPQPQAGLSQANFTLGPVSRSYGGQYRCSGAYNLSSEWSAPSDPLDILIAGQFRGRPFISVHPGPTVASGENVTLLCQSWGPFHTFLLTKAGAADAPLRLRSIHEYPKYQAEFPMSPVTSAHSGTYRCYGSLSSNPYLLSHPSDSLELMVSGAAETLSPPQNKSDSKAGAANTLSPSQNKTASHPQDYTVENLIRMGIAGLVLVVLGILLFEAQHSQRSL

[8] = molecular target: T6, human LILRB4 (human, UniProt Q8NHJ6 22-448); assay: flow cytometry, LILRB4 CHOs
T6 construct: Over-expressed on CHO-s cells; also called hLILRB4

[9] = molecular target: T3, human LILRB2 expressed on cells; assay: cell-based or functional assay
[10] = molecular target: T7, human LILRA3 (human, UniProt Q8N6C8 24-439); assay: flow cytometry, LILRA3 CHOs
T7 construct: Over-expressed on CHO-s cells; also called hLILRA3
T7 sequence (Q8N6C8 24-439 limits assumed): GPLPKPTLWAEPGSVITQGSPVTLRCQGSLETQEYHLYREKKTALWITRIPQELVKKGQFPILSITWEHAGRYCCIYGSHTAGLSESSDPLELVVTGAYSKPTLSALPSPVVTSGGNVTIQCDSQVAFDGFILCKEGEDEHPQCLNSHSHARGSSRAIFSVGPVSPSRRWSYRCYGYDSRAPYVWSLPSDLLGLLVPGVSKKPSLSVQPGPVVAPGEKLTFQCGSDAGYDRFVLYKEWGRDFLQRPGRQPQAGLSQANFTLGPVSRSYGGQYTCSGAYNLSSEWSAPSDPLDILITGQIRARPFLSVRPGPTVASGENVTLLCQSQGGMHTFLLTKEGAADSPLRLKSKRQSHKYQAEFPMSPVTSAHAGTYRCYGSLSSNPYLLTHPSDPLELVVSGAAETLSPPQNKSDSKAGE

[11] = molecular target: T8, human LILRA5 (human, UniProt A6NI73 42-299); assay: flow cytometry, LILRA5 CHOs
T8 construct: Over-expressed on CHO-s cells; also called hLILRA5
T8 sequence (A6NI73 42-299 limits assumed): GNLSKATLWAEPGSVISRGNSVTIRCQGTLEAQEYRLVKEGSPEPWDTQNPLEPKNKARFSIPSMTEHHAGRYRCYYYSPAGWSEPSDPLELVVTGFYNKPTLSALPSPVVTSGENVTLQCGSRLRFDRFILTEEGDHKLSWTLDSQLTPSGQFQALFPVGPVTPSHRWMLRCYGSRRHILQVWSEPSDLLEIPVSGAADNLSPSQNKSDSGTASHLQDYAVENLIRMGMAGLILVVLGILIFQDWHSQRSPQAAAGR

[12] = molecular target: T9, human LILRA6 (human, UniProt Q6PI73 24-481); assay: flow cytometry, LILRA6 CHOs
T9 construct: Over-expressed on CHO-s cells; also called hLILRA6
T9 sequence (Q6PI73 24-481 limits assumed): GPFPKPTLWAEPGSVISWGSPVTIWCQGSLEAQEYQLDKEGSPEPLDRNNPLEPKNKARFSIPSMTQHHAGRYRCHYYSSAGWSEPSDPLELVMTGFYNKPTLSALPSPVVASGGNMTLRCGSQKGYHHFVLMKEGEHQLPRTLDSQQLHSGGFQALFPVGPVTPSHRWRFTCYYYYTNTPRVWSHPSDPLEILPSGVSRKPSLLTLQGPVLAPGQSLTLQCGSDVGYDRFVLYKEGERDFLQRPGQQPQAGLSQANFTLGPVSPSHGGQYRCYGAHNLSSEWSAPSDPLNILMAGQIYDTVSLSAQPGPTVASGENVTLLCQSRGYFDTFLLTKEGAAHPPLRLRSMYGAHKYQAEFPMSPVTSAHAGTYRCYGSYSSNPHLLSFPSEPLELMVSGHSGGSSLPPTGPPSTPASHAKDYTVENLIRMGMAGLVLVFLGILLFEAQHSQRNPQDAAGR

[13] = molecular target: T10, human LILRB3 (human, UniProt O75022 24-631); assay: flow cytometry, LILRB3 CHOs
T10 construct: Over-expressed on CHO-s cells; also called hLILRB3

T1 sequence (O75023 24-590 P542R limits assumed): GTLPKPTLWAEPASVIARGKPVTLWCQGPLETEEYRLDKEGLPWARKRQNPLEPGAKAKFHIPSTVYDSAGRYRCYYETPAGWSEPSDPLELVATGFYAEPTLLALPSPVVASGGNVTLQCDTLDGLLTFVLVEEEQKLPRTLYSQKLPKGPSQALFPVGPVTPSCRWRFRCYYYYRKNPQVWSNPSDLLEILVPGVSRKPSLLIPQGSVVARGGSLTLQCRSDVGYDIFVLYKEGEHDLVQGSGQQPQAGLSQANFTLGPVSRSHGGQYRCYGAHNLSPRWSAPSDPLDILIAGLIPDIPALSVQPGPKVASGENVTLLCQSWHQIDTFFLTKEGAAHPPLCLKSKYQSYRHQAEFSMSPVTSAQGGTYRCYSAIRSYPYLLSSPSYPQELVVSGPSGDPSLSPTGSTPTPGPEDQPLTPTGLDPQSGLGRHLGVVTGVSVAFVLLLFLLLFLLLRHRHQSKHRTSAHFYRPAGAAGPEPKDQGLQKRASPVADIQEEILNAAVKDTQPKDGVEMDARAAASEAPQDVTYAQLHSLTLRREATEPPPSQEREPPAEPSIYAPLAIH
T2 sequence (Q8NHL6 24-650 limits assumed): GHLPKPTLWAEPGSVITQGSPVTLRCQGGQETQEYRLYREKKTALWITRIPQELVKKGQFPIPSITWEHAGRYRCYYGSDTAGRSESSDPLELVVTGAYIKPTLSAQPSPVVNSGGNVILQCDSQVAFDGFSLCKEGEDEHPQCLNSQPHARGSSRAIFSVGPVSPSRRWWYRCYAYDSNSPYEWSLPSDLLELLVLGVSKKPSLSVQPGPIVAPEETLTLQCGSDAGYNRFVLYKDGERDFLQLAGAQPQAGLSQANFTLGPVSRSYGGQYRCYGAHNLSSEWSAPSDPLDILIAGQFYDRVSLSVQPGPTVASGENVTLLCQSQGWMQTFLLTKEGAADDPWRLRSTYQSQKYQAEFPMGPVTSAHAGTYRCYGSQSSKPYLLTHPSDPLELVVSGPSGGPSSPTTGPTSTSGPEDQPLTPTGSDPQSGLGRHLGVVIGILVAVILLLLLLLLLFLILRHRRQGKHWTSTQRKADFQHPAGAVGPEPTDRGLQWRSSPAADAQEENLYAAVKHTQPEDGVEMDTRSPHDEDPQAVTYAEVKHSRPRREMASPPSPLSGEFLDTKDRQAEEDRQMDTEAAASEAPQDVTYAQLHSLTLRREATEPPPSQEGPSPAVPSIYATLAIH

B1: J-03 (antibody, human IgG4 S228P, kappa, V domains shown)
VH: QVQLQQSGAELVRPGASVTLSCKASGYKFTDYEMHWVKQTPVHGLEWIGAIDPETNGTAYNKKFKGKAILTADKSSSTAYMELRSLTSEDSAVYYCTRGDYDFSAWFAYWGQGTLVTVSA
VL: DIVLTQSPASLAVSLGQRATISCRASESVDNYDISFMHWYQQKPGQPPKLLIYRASNLESGIPARFSGSGSRTDFTLTINPVETDDVATYYCQQSNKDPRTFGGGTKLEIKR
notes: Human IgG4 chimera of murine origin
- binding (fold over iso) [1]: 1 fold over iso
- binding result [1]: no binding
- binding (fold over iso) [2]: 0.94 fold over iso
- binding result [2]: no binding
- binding (fold over iso) [3]: 30.1 fold over iso
- HLA-G:LILRB2 CHOs blocking (% blocked) [4]: -156 % blocked
- binding (fold over iso) [5]: 1.58 fold over iso
- binding result [5]: no binding
- HLA-A2:LILRB2 CHOs blocking (% blocked) [6]: -208 % blocked
- binding (fold over iso) [7]: 0.89 fold over iso
- binding result [7]: no binding
- binding (fold over iso) [8]: 1.02 fold over iso
- binding result [8]: no binding
- CCL2 production (fold over LPS alone) [9]: 0.95 fold over LPS alone
- IL-6 production (fold over LPS alone) [9]: 1.1 fold over LPS alone
- IL-10 production (fold over LPS alone) [9]: 0.97 fold over LPS alone
- TNFa production (fold over LPS alone) [9]: 1.27 fold over LPS alone
- binding (fold over iso) [10]: 1.05 fold over iso
- binding result [10]: no binding
- binding (fold over iso) [11]: 0.96 fold over iso
- binding result [11]: no binding
- binding (fold over iso) [12]: 1.23 fold over iso
- binding result [12]: no binding
- binding (fold over iso) [13]: 0.97 fold over iso
- binding result [13]: no binding

B2: J-04 (antibody, human IgG4 S228P, kappa, V domains shown)
VH: QVQLQQSGAELVRPGASVTLSCKASGYTFADYEIHWVKQTPVHGLEWIGAIDPETGGTAYNQKFKGKAILTADKSSSTAYMELRSLTSEDSAVYYCTRYYDYDDAMDYWGQGTSVTVSS
VL: QIVLTQSPAIMSASPGEKVTMTCSASSSVSFMHWYQQKSGTSPKRWIYGTSKLASGVPARFSGSGSGTSYSLTISSMEAEDAATYYCQQWNGNPFTFGSGTKLETKR
notes: as for B1
- binding (fold over iso) [1]: 1.08 fold over iso
- binding result [1]: no binding
- binding (fold over iso) [2]: 0.95 fold over iso
- binding result [2]: no binding
- binding (fold over iso) [3]: 33.8 fold over iso
- HLA-G:LILRB2 CHOs blocking (% blocked) [4]: -255 % blocked
- binding (fold over iso) [5]: 1.62 fold over iso
- binding result [5]: no binding
- HLA-A2:LILRB2 CHOs blocking (% blocked) [6]: -319 % blocked
- binding (fold over iso) [7]: 0.88 fold over iso
- binding result [7]: no binding
- binding (fold over iso) [8]: 0.83 fold over iso
- binding result [8]: no binding
- CCL2 production (fold over LPS alone) [9]: 1 fold over LPS alone
- IL-6 production (fold over LPS alone) [9]: 1.36 fold over LPS alone
- IL-10 production (fold over LPS alone) [9]: 0.95 fold over LPS alone
- TNFa production (fold over LPS alone) [9]: 1.18 fold over LPS alone
- binding (fold over iso) [10]: 0.93 fold over iso
- binding result [10]: no binding
- binding (fold over iso) [11]: 0.74 fold over iso
- binding result [11]: no binding
- binding (fold over iso) [12]: 1.3 fold over iso
- binding result [12]: no binding
- binding (fold over iso) [13]: 0.9 fold over iso
- binding result [13]: no binding
